Assay results as given in patent publication US20260151453A1, “COMBINATION THERAPY FOR THE TREATMENT OF CANCER” (PEPTOMYC, S.L., priority 2022, published 2026).

Assays:
MDA-MB-231 cells [1] = assay: Microarray analysis of gene expression in MDA-MB-231 cells; assay type: cell-based; details: data not shown
MIA-PACA-2 cells = assay: Viability of PDAC MIA-PACA-2 cells treated alone and in combination for 5 days; synergy score by SynergyFinder.org; assay type: cell-based; details: MIA-PACA-2 cells, Omomyc added to Olaparib
Text: (§1) Synergy scores can be interpreted as the average excess response due to drug interactions. Synergy scores close to 0 give limited confidence in synergy or antagonism. So, when the synergy scores are: less than −10, the interaction between two drugs is likely to be antagonistic. From −10 to 10, the interaction between two drugs is likely to be additive. Greater than 10, the interaction between two drugs is likely to be synergistic.
Pancreatic ductal adenocarcinoma (PDAC) MIA-PACA-2 cells were treated with increasing concentrations of Olaparib and the Omomyc peptide sequence SEQ ID NO: 4 alone and in combination, for 5 days.
Then synergy score was calculated by SynergyFinder.org after having carried out 3 biological replicates as described above.

[2] = tested on: SUM149 cell-derived xenograft (CDX); assay: SUM149 cell-derived xenograft (CDX) model, orthotopic in mammary fat-pad, tumour growth; assay type: in vivo; details: SUM149 CDX mice, 4 weeks; Omomyc 50 mg/kg intravenous once a week; Olaparib 50 mg/kg oral gavage 6 times a week; preliminary
Description: SUM149 cell-derived xenograft (CDX) model mice were used for in vivo studies. Each mouse was inoculated orthotopically in the mammary fat-pad with 5 million cells. As the tumours reached 100 mm^3, mice were randomised in 4 treatment groups. Specifically, mice were treated with Omomyc once a week (50 mg/kg, intravenous), with Olaparib 6 times a week (50 mg/kg oral gavage), with the combination of the 2 drugs (combo) or with vehicle alone for 4 weeks. Relative volume was calculated as a percentage of tumour growth from the day of randomization and beginning of treatments. At end-point the average of the groups were respectively: vehicle 901.8%, Omomyc 663.6%, Olaparib 623.6%, and combination 335.8%.

MDA-MB-231 cells [3] = assay: Viability of MDA-MB-231 TNBC cells treated alone and in combination for 5 days; synergy score by SynergyFinder.org; assay type: cell-based; details: single agent, 5 days (FIG. 1A)
Description: Triple negative breast cancer (TNBC) cell lines MDA-MB-231, SUM149 and MX-1 were treated with increasing concentrations of Olaparib or Talazoparib and the Omomyc peptide sequence SEQ ID NO: 4, alone and in combination, for 5 days.
Then synergy score was calculated by SynergyFinder.org after having carried out 3 biological replicates.
as §1

B1: Omomyc: Purified recombinant polypeptide of SEQ ID NO: 4: mutated bHLHZip domain of Myc (E61T, E68I, R74Q, R75N) with N-terminal methionine (protein)
chain: TEENVKRRTHNVLERQRRNELKRSFFALRDQIPELENNEKAPKVVILKKATAYILSVQAETQKLISEIDLLRKQNEQLKHKLEQLRNSCA
expression of homologous recombination (HR-) and BRCA1/2-deficiency related genes and pathways (MDA-MB-231 cells [1]): reduces the expression
reversal of olaparib resistance (MIA-PACA-2 cells): able to revert olaparib resistance
Relative volume, percentage of tumour growth from the day of randomization (group average at end-point) [2]: 663.6%
viability of cells (MDA-MB-231 cells [3]): significantly reduces viability
